One experiment has as its target T1, CEA (UniProt P06731 35-685, limits assumed).
T1 construct: also called immobilized CEA; carcinoembryonic antigen
T1 sequence (looked up): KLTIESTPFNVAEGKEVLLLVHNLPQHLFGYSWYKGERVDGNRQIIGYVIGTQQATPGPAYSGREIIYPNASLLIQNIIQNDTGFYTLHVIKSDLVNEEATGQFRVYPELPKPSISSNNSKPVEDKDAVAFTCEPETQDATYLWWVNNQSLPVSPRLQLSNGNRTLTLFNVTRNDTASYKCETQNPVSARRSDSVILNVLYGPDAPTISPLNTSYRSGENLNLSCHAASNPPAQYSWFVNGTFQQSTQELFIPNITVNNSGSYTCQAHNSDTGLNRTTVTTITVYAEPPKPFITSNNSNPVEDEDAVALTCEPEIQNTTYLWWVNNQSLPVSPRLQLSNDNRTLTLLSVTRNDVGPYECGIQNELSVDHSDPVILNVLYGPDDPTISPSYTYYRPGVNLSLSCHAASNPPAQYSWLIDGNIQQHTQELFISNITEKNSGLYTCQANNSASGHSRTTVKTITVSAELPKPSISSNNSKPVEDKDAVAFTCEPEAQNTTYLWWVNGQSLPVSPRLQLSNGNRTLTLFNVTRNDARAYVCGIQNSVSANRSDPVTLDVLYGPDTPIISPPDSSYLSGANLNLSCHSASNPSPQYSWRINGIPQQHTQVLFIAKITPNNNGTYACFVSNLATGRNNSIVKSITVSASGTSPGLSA
In words: ELISA on immobilized CEA. From the text: Bound antibodies were detected with an HRP-conjugated anti-His-tag antibody.
A bispecific single-chain diabody (scDb)-EHD2 fusion protein was generated by fusing a scDb directed against CEA and human CD3 to the N-terminus of the EHD2 (FIG. 27a, b). The construct was cloned into mammalian expression vector pSecTagA and produced in stably transfected HEK293 cells. Protein was purified from the cell culture supernatant by immobilized metal affinity chromatography.

Experiment [1] addresses T2, TNFR2-Fc fusion protein (Enbrel) (UniProt P20333 23-257).
T2 construct: Commercial product Enbrel, coated at 1 ug/ml; not shown: Fc part of Enbrel
T2 sequence (looked up): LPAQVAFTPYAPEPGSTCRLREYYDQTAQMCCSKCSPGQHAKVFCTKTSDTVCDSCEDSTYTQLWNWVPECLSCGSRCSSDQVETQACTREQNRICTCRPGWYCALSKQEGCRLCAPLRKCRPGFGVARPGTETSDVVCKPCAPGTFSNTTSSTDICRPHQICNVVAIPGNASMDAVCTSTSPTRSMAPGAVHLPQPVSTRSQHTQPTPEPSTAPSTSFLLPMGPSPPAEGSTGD
Nature of the experiment: ELISA on coated TNFR2-Fc (Enbrel). On the procedure: FIG. 36: a-c) Purified TNF variants (a: MHD2-scTNFR2, b: EHD2-scTNFR2 with a 16 aa linker between EHD2 and scTNFR2 as well as c: EHD2-scTNFR2 with a 28 aa linker between EHD2 and scTNFR2) were analyzed by 8% SDS-PAGE under reducing (+2-ME) or non-reducing (−2-ME) conditions and stained with Coomassie. d) Binding studies with TNFR2-Fc fusion protein. Plates were coated with 1 μg/ml TNFR2-Fc fusion protein (Enbrel). TNF fusion proteins were incubated for 1 h at RT and bound TNF fusion proteins were detected using HRP-conjugated anti-TNF antibodies and TMB substrate (n=2).
Background: In an ELISA, binding on a coated surface is turned into a signal by an enzyme label.

The target in experiment [2] is T3, recombinant TRAIL-R1 (receptor-Fc fusion protein) (UniProt O00220 24-239, limits assumed).
T3 construct: also called TRAIL receptor 1; not shown: Fc part
Nature of the experiment: ELISA on recombinant receptor-Fc.

The next experiment has as its target T4, HER2-Fc fusion protein (UniProt P04626 23-652, limits assumed).
T4 construct: extracellular domain; also called Fc fusion protein of the extracellular region of HER2; not shown: Fc part
In words: ELISA on immobilized HER2-Fc.

The target of a further experiment is T5, EGFR-Fc fusion protein (UniProt P00533 25-645, limits assumed).
T5 construct: extracellular domain; also called Fc fusion protein of the extracellular region of EGFR; immobilized EGFR; not shown: Fc part
In words: ELISA on immobilized EGFR-Fc.

B1: Anti-CEA scFv-EHD2 (scFv)
chain: DAAQPAMAQVKLQQSGAELVRSGTSVKLSCTASGFNIKDSYMHWLRQGPEQGLEWIGWIDPENGDTEYAPKFQGKATFTTDTSSNTAYLQLSSLTSEDTAVYYCNEGTPTGPYYFDYWGQGTTVTVSSGGGGSGGGGSGGGGSDIELTQSPAIMSASPGEKVTITCSASSSVSYMHWFQQKPGTSPKLWIYSTSNLASGVPARFSGSGSGTSYSLTISRMEAEDAATYYCQQRSSYPLTFGAGTKLELKRGSLGGSGGDFTPPTVKILQSSCDGGGHFPPTIQLLCLVSGYTPGTINITWLEDGQVMDVDLSTASTTQEGELASTQSELTLSQKHWLSDRTYTCQVTYQGHTFEDSTKKCADSNGGGSGGGTGSEFAAAHHHHHH
notes: Bivalent homodimer, His6; also called scFv-EHD2 fusion protein directed against CEA
Turning to B1, in the experiment with CEA, the binding result is “binds”.

B2: EHD2-scTNFR2-L16aa (ligand)
chain: DAAQPAGGGAAAHHHHHHGGTGGGGSGGKLGGSGGDFTPPTVKILQSSCDGGGHFPPTIQLLCLVSGYTPGTINITWLEDGQVMDVDLSTASTTQEGELASTQSELTLSQKHWLSDRTYTCQVTYQGHTFEDSTKKCADSNGGGSGGGTGSEFLASSRTPSDKPVAHVVANPQAEGQLQWLNRRANALLANGVELRDNQLVVPSEGLYLIYSQVLFKGQGCPSTHVLLTHTISRIAVSYQTKVNLLSAIKSPCQRETPEGAEAKPWYEPIYLGGVFQLEKGDRLSAEINRPDYLNFRESGQVYFGIIALGGGGSSSRTPSDKPVAHVVANPQAEGQLQWLNRRANALLANGVELRDNQLVVPSEGLYLIYSQVLFKGQGCPSTHVLLTHTISRIAVSYQTKVNLLSAIKSPCQRETPEGAEAKPWYEPIYLGGVFQLEKGDRLSAEINRPDYLNFRESGQVYFGIIALGGGGSSSRTPSDKPVAHVVANPQAEGQLQWLNRRANALLANGVELRDNQLVVPSEGLYLIYSQVLFKGQGCPSTHVLLTHTISRIAVSYQTKVNLLSAIKSPCQRETPEGAEAKPWYEPIYLGGVFQLEKGDRLSAEINRPDYLNFRESGQVYFGIIAL
notes: Dimer of the TNFR2-selective single-chain TNF mutant (D143N/A145R) fused to EHD2, 16 aa linker; also called EHD2-scTNFR2 with a 16 aa linker between EHD2 and scTNFR2
B2: in experiment [1], the binding result is given as “binds”.

B3: EHD2-scTNFR2-L28aa (ligand)
chain: DAAQPAGGGAAAHHHHHHGGTGGGGSGGKLGGSGGDFTPPTVKILQSSCDGGGHFPPTIQLLCLVSGYTPGTINITWLEDGQVMDVDLSTASTTQEGELASTQSELTLSQKHWLSDRTYTCQVTYQGHTFEDSTKKCADSNGGGSGGGSGGGSGGGSGGGSGGSEFLASSRTPSDKPVAHVVANPQAEGQLQWLNRRANALLANGVELRDNQLVVPSEGLYLIYSQVLFKGQGCPSTHVLLTHTISRIAVSYQTKVNLLSAIKSPCQRETPEGAEAKPWYEPIYLGGVFQLEKGDRLSAEINRPDYLNFRESGQVYFGIIALGGGGSSSRTPSDKPVAHVVANPQAEGQLQWLNRRANALLANGVELRDNQLVVPSEGLYLIYSQVLFKGQGCPSTHVLLTHTISRIAVSYQTKVNLLSAIKSPCQRETPEGAEAKPWYEPIYLGGVFQLEKGDRLSAEINRPDYLNFRESGQVYFGIIALGGGGSSSRTPSDKPVAHVVANPQAEGQLQWLNRRANALLANGVELRDNQLVVPSEGLYLIYSQVLFKGQGCPSTHVLLTHTISRIAVSYQTKVNLLSAIKSPCQRETPEGAEAKPWYEPIYLGGVFQLEKGDRLSAEINRPDYLNFRESGQVYFGIIAL
notes: Dimer of the TNFR2-selective single-chain TNF mutant (D143N/A145R) fused to EHD2, 28 aa linker; also called EHD2-scTNFR2 with a 28 aa linker between EHD2 and scTNFR2
With B3, the binding result in experiment [1] is on record as “binds”.

B4: Anti-CEAxCD3 scDb-EHD2 (bispecific antibody)
chain: DAAQPAMAQVKLQQSGAELVRSGTSVKLSCTASGFNIKDSYMHWLRQGPEQGLEWIGWIDPENGDTEYAPKFQGKATFTTDTSSNTAYLQLSSLTSEDTAVYYCNEGTPTGPYYFDYWGQGTTVTVSSGGGGSDIQMTQSPSSLSASVGDRVTITCRASQDIRNYLNWYQQKPGKAPKLLIYYTSRLESGVPSRFSGSGSGTDYTLTISSLQPEDFATYYCQQGNTLPWTFGQGTKVEIKRGGGGSGGRASGGGGSEVQLVESGGGLVQPGGSLRLSCAASGYSFTGYTMNWVRQAPGKGLEWVALINPYKGVSTYNQKFKDRFTISVDKSKNTAYLQMNSLRAEDTAVYYCARSGYYGDSDWYFDVWGQGTLVTVSSGGGGSDIELTQSPAIMSASPGEKVTITCSASSSVSYMHWFQQKPGTSPKLWIYSTSNLASGVPARFSGSGSGTSYSLTISRMEAEDAATYYCQQRSSYPLTFGAGTKLELKRGSLGGSGGDFTPPTVKILQSSCDGGGHFPPTIQLLCLVSGYTPGTINITWLEDGQVMDVDLSTASTTQEGELASTQSELTLSQKHWLSDRTYTCQVTYQGHTFEDSTKKCADSNGGGSGGGTGSEFAAAHHHHHH
notes: Homodimer: scDb against CEA and human CD3 at the N-terminus of EHD2, His6; also called bispecific single-chain diabody (scDb)-EHD2 fusion protein
B4: the binding result in the experiment with CEA is on record as “binds”.

B5: MHD2-scTNFR2 (ligand)
chain: DAAQPAGGGAAAHHHHHHGGTGGGGSGGKLGGSGGAELPPKVSVFVPPRDGFFGNPRKSKLICQATGFSPRQIQVSWLREGKQVGSGVTTDQVQAEAKESGPTTYKVTSTLTIKESDWLGQSMFTCRVDHRGLTFQQNASSMCVPDGGGSGGGTGSEFLASSRTPSDKPVAHVVANPQAEGQLQWLNRRANALLANGVELRDNQLVVPSEGLYLIYSQVLFKGQGCPSTHVLLTHTISRIAVSYQTKVNLLSAIKSPCQRETPEGAEAKPWYEPIYLGGVFQLEKGDRLSAEINRPDYLNFRESGQVYFGIIALGGGGSSSRTPSDKPVAHVVANPQAEGQLQWLNRRANALLANGVELRDNQLVVPSEGLYLIYSQVLFKGQGCPSTHVLLTHTISRIAVSYQTKVNLLSAIKSPCQRETPEGAEAKPWYEPIYLGGVFQLEKGDRLSAEINRPDYLNFRESGQVYFGIIALGGGGSSSRTPSDKPVAHVVANPQAEGQLQWLNRRANALLANGVELRDNQLVVPSEGLYLIYSQVLFKGQGCPSTHVLLTHTISRIAVSYQTKVNLLSAIKSPCQRETPEGAEAKPWYEPIYLGGVFQLEKGDRLSAEINRPDYLNFRESGQVYFGIIAL
Turning to B5, the binding result in experiment [1] is on record as “binds”.

B6: EHD2-scTRAIL (ligand)
chain: DYKDDDDKGGGGSAAQPADFTPPTVKILQSSCDGGGHFPPTIQLLCLVSGYTPGTINITWLEDGQVMDVDLSTASTTQEGELASTQSELTLSQKHWLSDRTYTCQVTYQGHTFEDSTKKCADSNGGSGGEFTRGTSEETISTVQEKQQNISPLVRERGPQRVAAHITGTRGRSNTLSSPNSKNEKALGRKINSWESSRSGHSFLSNLHLRNGELVIHEKGFYYIYSQTYFRFQEEIKENTKNDKQMVQYIYKYTSYPDPILLMKSARNSCWSKDAEYGLYSIYQGGIFELKENDRIFVSVTNEHLIDMDHEASFFGAFLVGGGGSGGGSTSEETISTVQEKQQNISPLVRERGPQRVAAHITGTRGRSNTLSSPNSKNEKALGRKINSWESSRSGHSFLSNLHLRNGELVIHEKGFYYIYSQTYFRFQEEIKENTKNDKQMVQYIYKYTSYPDPILLMKSARNSCWSKDAEYGLYSIYQGGIFELKENDRIFVSVTNEHLIDMDHEASFFGAFLVGGGGSGGGSTSEETISTVQEKQQNISPLVRERGPQRVAAHITGTRGRSNTLSSPNSKNEKALGRKINSWESSRSGHSFLSNLHLRNGELVIHEKGFYYIYSQTYFRFQEEIKENTKNDKQMVQYIYKYTSYPDPILLMKSARNSCWSKDAEYGLYSIYQGGIFELKENDRIFVSVTNEHLIDMDHEASFFGAFLVG
notes: Bivalent homodimer of single-chain TRAIL at the C-terminus of EHD2, FLAG-tagged
B6: the binding result is on record as “binds” in experiment [2], “no binding” with HER2-Fc fusion protein and “no binding” with EGFR-Fc fusion protein.

For the origin of these results see patent publication US20170327594A1 (UNIVERSIT T STUTTGART, published 2017).
